# B1: His-MCAK_(S715E), full length (natural protein, human, UniProt Q99661 1-725, looked up)
# chain: MAMDSSLQARLFPGLAIKIQRSNGLIHSANVRTVNLEKSCVSVEWAEGGATKGKEIDFDDVAAINPELLQLLPLHPKDNLPLQENVTIQKQKRRSVNSKIPAPKESLRSRSTRMSTVSELRITAQENDMEVELPAAANSRKQFSVPPAPTRPSCPAVAEIPLRMVSEEMEEQVHSIRGSSSANPVNSVRRKSCLVKEVEKMKNKREEKKAQNSEMRMKRAQEYDSSFPNWEFARMIKEFRATLECHPLTMTDPIEEHRICVCVRKRPLNKQELAKKEIDVISIPSKCLLLVHEPKLKVDLTKYLENQAFCFDFAFDETASNEVVYRFTARPLVQTIFEGGKATCFAYGQTGSGKTHTMGGDLSGKAQNASKGIYAMASRDVFLLKNQPCYRKLGLEVYVTFFEIYNGKLFDLLNKKAKLRVLEDGKQQVQVVGLQEHLVNSADDVIKMIDMGSACRTSGQTFANSNSSRSHACFQIILRAKGRMHGKFSLVDLAGNERGADTSSADRQTRMEGAEINKSLLALKECIRALGQNKAHTPFRESKLTQVLRDSFIGENSRTCMIATISPGISSCEYTLNTLRYADRVKELSPHSGPSGEQLIQMETEEMEACSNGALIPGNLSKEEEELSSQMSSFNEAMTQIRELEEKAMEELKEIIQQGPDWLELSEMTEQPDYDLETFVNKAESALAQQAKHFSALRDVIKALRLAMQLEEQAERQISSKKRPQ
# notes: MCAK (Kif2c), human, residues 1-725, full length; also called full-length MCAK_(S715E); source: Sf9 (baculovirus), purified
# Key:
# [1] = target: T1, His-MCAK motor region with the neck linker region (M) (human, UniProt Q99661 183-583); assay: SEC-MALS; motor domain with CT domain; Superdex 200 10/300 GL; 2 mg/ml in 100 mM HEPES, pH 7.2, 150 mM NaCl; settings: both partners purified
# T1 construct: MCAK (Kif2c), human, neck linker region and motor region; the methods state residues 183-583, the results state 181-583; Cloned in pET3aTr; also called motor domain; MCAK motor domain; source: E. coli BL21(DE3) Codon plus, purified (Ni-NTA, gel filtration)
# [2] = target: B1; assay: co-sedimentation; competition: 100 nM full-length MCAK_(S715E) with 2 μM taxol-stabilized microtubules and increasing concentration of cleaved free CT domain; western blot; settings: both partners purified
# [3] = target: T1, His-MCAK motor region with the neck …; assay: other fluorescence titration; intrinsic tryptophan/aromatic fluorescence (excitation 295 and 280 nm) of 1 μM motor domain, CT domain titrated 0 to 15,660 nM; 25°C; 100 mM HEPES, pH 7.4, 150 mM NaCl; motor pre-treated with EDTA to remove ADP; settings: both partners purified
# [4] = target: T1, His-MCAK motor region with the neck …; assay: SEC; analytical gel filtration of the motor with GST-CT_(E712C) under oxidizing conditions; fractions on Coomassie-stained SDS-PAGE; settings: both partners purified
# [5] = target: T1, His-MCAK motor region with the neck …; assay: pull-down; resin-based binding assay: GST-CT or GST-CT point mutants (GST as a control) on glutathione agarose beads; purified His-M, His-NM or cleaved CT domain added; Coomassie-stained gel; settings: both partners purified
# [6] = target: the molecule itself; assay: SEC; gel filtration of full-length MCAK proteins alone; elution compared with wild type full-length MCAK
binder,measurement,setting,value
"VIKALRLAMQLEEQASRQISSKKRPQ (peptide, UniProt Q99661 700-725, looked up, MCAK (Kif2c) C-terminal tail (CT domain), human, residues 700-725 as stated; also called free CT domain; C terminus; source: E. coli BL21(DE3) Codon plus, purified as GST fusion, GST cleaved with GST-3C protease and removed) [MCAK C-terminal tail (CT) domain, GST cleaved and removed]",stoichiometry N,[1],0.5 CT domain per motor domain
same,binding result,[2],binds
same,Kd,[3],~1100 nM
"VIKALRLAMQLECQASRQISSKKRPQ (domain or fragment, human, UniProt Q99661 700-725, looked up, MCAK (Kif2c) CT domain, human, residues 700-725 as stated (the printed primers of the parent encode 701-725); Designed to form a disulphide bridge with Cys287 of the motor domain without DTT; source: E. coli BL21(DE3) Codon plus, purified (glutathione-sepharose, gel filtration)) [GST-CT_(E712C) domain]",stoichiometry N,[4],0.5 CT domain per motor
"VIKALRLAMQLEEQASRQASSKKRPQ (domain or fragment, human, UniProt Q99661 700-725, looked up, MCAK (Kif2c) CT domain, human, residues 700-725 as stated (the printed primers of the parent encode 701-725); source: E. coli BL21(DE3) Codon plus, purified (glutathione-sepharose, gel filtration)) [GST-CT_(I718A) domain]",binding result,[5],binds
"VIKALRLAMQLEEQAARQISSKKRPQ (domain or fragment, human, UniProt Q99661 700-725, looked up, MCAK (Kif2c) CT domain, human, residues 700-725 as stated (the printed primers of the parent encode 701-725); source: E. coli BL21(DE3) Codon plus, purified (glutathione-sepharose, gel filtration)) [GST-CT_(S715A) domain]",binding result,[5],binds
"VIKALRLAMQLEEQASAQISSKKRPQ (domain or fragment, human, UniProt Q99661 700-725, looked up, MCAK (Kif2c) CT domain, human, residues 700-725 as stated (the printed primers of the parent encode 701-725); source: E. coli BL21(DE3) Codon plus, purified (glutathione-sepharose, gel filtration)) [GST-CT_(R716A) domain]",binding result,[5],binds
"His-MCAK (1-725), full-length MCAK (natural protein, human, UniProt Q99661 1-725, looked up, MCAK (Kif2c), human, residues 1-725, full length; Cloned in the pFL vector; also called wild type MCAK; Kif2c; source: Sf9 (baculovirus), purified) MAMDSSLQARLFPGLAIKIQRSNGLIHSANVRTVNLEKSCVSVEWAEGGATKGKEIDFDDVAAINPELLQLLPLHPKDNLPLQENVTIQKQKRRSVNSKIPAPKESLRSRSTRMSTVSELRITAQENDMEVELPAAANSRKQFSVPPAPTRPSCPAVAEIPLRMVSEEMEEQVHSIRGSSSANPVNSVRRKSCLVKEVEKMKNKREEKKAQNSEMRMKRAQEYDSSFPNWEFARMIKEFRATLECHPLTMTDPIEEHRICVCVRKRPLNKQELAKKEIDVISIPSKCLLLVHEPKLKVDLTKYLENQAFCFDFAFDETASNEVVYRFTARPLVQTIFEGGKATCFAYGQTGSGKTHTMGGDLSGKAQNASKGIYAMASRDVFLLKNQPCYRKLGLEVYVTFFEIYNGKLFDLLNKKAKLRVLEDGKQQVQVVGLQEHLVNSADDVIKMIDMGSACRTSGQTFANSNSSRSHACFQIILRAKGRMHGKFSLVDLAGNERGADTSSADRQTRMEGAEINKSLLALKECIRALGQNKAHTPFRESKLTQVLRDSFIGENSRTCMIATISPGISSCEYTLNTLRYADRVKELSPHSGPSGEQLIQMETEEMEACSNGALIPGNLSKEEEELSSQMSSFNEAMTQIRELEEKAMEELKEIIQQGPDWLELSEMTEQPDYDLETFVNKAESALAQQAKHFSALRDVIKALRLAMQLEEQASRQISSKKRPQ",binding result,[6],binds
"His-MCAK_(E712C), full length (natural protein, human, UniProt Q99661 1-725, looked up, MCAK (Kif2c), human, residues 1-725, full length; Without DTT a disulphide between Cys712 and Cys287 is intended; also called full-length MCAK_(E712C); source: Sf9 (baculovirus), purified) MAMDSSLQARLFPGLAIKIQRSNGLIHSANVRTVNLEKSCVSVEWAEGGATKGKEIDFDDVAAINPELLQLLPLHPKDNLPLQENVTIQKQKRRSVNSKIPAPKESLRSRSTRMSTVSELRITAQENDMEVELPAAANSRKQFSVPPAPTRPSCPAVAEIPLRMVSEEMEEQVHSIRGSSSANPVNSVRRKSCLVKEVEKMKNKREEKKAQNSEMRMKRAQEYDSSFPNWEFARMIKEFRATLECHPLTMTDPIEEHRICVCVRKRPLNKQELAKKEIDVISIPSKCLLLVHEPKLKVDLTKYLENQAFCFDFAFDETASNEVVYRFTARPLVQTIFEGGKATCFAYGQTGSGKTHTMGGDLSGKAQNASKGIYAMASRDVFLLKNQPCYRKLGLEVYVTFFEIYNGKLFDLLNKKAKLRVLEDGKQQVQVVGLQEHLVNSADDVIKMIDMGSACRTSGQTFANSNSSRSHACFQIILRAKGRMHGKFSLVDLAGNERGADTSSADRQTRMEGAEINKSLLALKECIRALGQNKAHTPFRESKLTQVLRDSFIGENSRTCMIATISPGISSCEYTLNTLRYADRVKELSPHSGPSGEQLIQMETEEMEACSNGALIPGNLSKEEEELSSQMSSFNEAMTQIRELEEKAMEELKEIIQQGPDWLELSEMTEQPDYDLETFVNKAESALAQQAKHFSALRDVIKALRLAMQLECQASRQISSKKRPQ",binding result,[6],binds
B1,binding result,[6],binds
